The results in this text go back to PMC8852700, “Distinct Serotypes of Streptococcal M Proteins Mediate Fibrinogen-Dependent Platelet Activation and Proinflammatory Effects” (Infection and Immunity, 2021).

Experiment [1] concerns the target M3 protein (Streptococcus pyogenes) (UniProt Q54841).
Experiment [2] has the same target. The source holds these as a separate data set.
For experiment [3] the target is unchanged. This is another data set of the same source.
In another experiment the target is T1, M1 protein (Streptococcus pyogenes, UniProt Q99XV0 1-484).
T1 sequence: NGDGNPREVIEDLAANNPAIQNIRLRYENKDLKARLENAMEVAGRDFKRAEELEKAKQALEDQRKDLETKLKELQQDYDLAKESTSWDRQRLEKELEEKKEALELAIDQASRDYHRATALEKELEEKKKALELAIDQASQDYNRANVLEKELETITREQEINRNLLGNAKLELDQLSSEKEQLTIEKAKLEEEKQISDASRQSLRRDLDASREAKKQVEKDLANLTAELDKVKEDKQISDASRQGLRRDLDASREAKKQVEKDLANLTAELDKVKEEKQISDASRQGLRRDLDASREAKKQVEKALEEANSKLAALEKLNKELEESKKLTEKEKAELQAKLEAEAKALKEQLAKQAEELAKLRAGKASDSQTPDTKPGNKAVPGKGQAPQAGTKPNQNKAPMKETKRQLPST
Briefly: cell-based or functional assay.

A further experiment has as its target T2, M5 protein (Streptococcus pyogenes, UniProt P02977 43-461).
T2 sequence: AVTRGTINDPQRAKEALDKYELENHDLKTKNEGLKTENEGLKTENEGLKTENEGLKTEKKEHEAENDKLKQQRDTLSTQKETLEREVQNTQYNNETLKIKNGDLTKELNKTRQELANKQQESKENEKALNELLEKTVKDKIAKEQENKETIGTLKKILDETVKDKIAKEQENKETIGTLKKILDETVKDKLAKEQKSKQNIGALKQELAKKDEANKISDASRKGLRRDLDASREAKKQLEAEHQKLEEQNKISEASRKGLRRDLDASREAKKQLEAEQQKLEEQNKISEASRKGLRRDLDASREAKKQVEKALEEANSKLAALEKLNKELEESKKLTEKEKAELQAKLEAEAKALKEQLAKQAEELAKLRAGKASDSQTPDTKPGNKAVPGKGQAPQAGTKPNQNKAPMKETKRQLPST
Briefly: cell-based or functional assay.

As for “human fibrinogen (from UniProt P02671 36-866; P02675 45-491; P02679 27-453) (natural protein)”, in experiment [1], the platelet activation: percentage of platelets positive for CD62P, flow cytometry of platelet-rich plasma, median of 10 donors (background 3%) stood at 55%. Further, in experiment [2], the platelet-monocyte complex formation: percentage of monocytes positive for CD61, flow cytometry of whole blood, median of 10 donors (background 4%) was determined as 17% and the platelet-neutrophil complex formation: percentage of neutrophils positive for CD61, flow cytometry of whole blood, median of 10 donors (background 18%) stood at 53%. In experiment [3], this molecule displayed a monocyte activation: fold increase of CD11b median fluorescence intensity above background, flow cytometry of whole blood, 10 donors of 3 fold and a neutrophil activation: fold increase of CD11b median fluorescence intensity above background, flow cytometry of whole blood, 10 donors of 5 fold.

B1: human fibrinogen (natural protein)
chain 1: GPRVVERHQSACKDSDWPFCSDEDWNYKCPSGCRMKGLIDEVNQDFTNRINKLKNSLFEYQKNNKDSHSLTTNIMEILRGDFSSANNRDNTYNRVSEDLRSRIEVLKRKVIEKVQHIQLLQKNVRAQLVDMKRLEVDIDIKIRSCRGSCSRALAREVDLKDYEDQQKQLEQVIAKDLLPSRDRQHLPLIKMKPVPDLVPGNFKSQLQKVPPEWKALTDMPQMRMELERPGGNEITRGGSTSYGTGSETESPRNPSSAGSWNSGSSGPGSTGNRNPGSSGTGGTATWKPGSSGPGSTGSWNSGSSGTGSTGNQNPGSPRPGSTGTWNPGSSERGSAGHWTSESSVSGSTGQWHSESGSFRPDSPGSGNARPNNPDWGTFEEVSGNVSPGTRREYHTEKLVTSKGDKELRTGKEKVTSGSTTTTRRSCSKTVTKTVIGPDGHKEVTKEVVTSEDGSDCPEAMDLGTLSGIGTLDGFRHRHPDEAAFFDTASTGKTFPGFFSPMLGEFVSETESRGSESGIFTNTKESSSHHPGIAEFPSRGKSSSYSKQFTSSTSYNRGDSTFESKSYKMADEAGSEADHEGTHSTKRGHAKSRPVRDCDDVLQTHPSGTQSGIFNIKLPGSSKIFSVYCDQETSLGGWLLIQQRMDGSLNFNRTWQDYKRGFGSLNDEGEGEFWLGNDYLHLLTQRGSVLRVELEDWAGNEAYAEYHFRVGSEAEGYALQVSSYEGTAGDALIEGSVEEGAEYTSHNNMQFSTFDRDADQWEENCAEVYGGGWWYNNCQAANLNGIYYPGGSYDPRNNSPYEIENGVVWVSFRGADYSLRAVRMKIRPLVTQ
chain 2: GHRPLDKKREEAPSLRPAPPPISGGGYRARPAKAAATQKKVERKAPDAGGCLHADPDLGVLCPTGCQLQEALLQQERPIRNSVDELNNNVEAVSQTSSSSFQYMYLLKDLWQKRQKQVKDNENVVNEYSSELEKHQLYIDETVNSNIPTNLRVLRSILENLRSKIQKLESDVSAQMEYCRTPCTVSCNIPVVSGKECEEIIRKGGETSEMYLIQPDSSVKPYRVYCDMNTENGGWTVIQNRQDGSVDFGRKWDPYKQGFGNVATNTDGKNYCGLPGEYWLGNDKISQLTRMGPTELLIEMEDWKGDKVKAHYGGFTVQNEANKYQISVNKYRGTAGNALMDGASQLMGENRTMTIHNGMFFSTYDRDNDGWLTSDPRKQCSKEDGGGWWYNRCHAANPNGRYYWGGQYTWDMAKHGTDDGVVWMNWKGSWYSMRKMSMKIRPFFPQQ
chain 3: YVATRDNCCILDERFGSYCPTTCGIADFLSTYQTKVDKDLQSLEDILHQVENKTSEVKQLIKAIQLTYNPDESSKPNMIDAATLKSRKMLEEIMKYEASILTHDSSIRYLQEIYNSNNQKIVNLKEKVAQLEAQCQEPCKDTVQIHDITGKDCQDIANKGAKQSGLYFIKPLKANQQFLVYCEIDGSGNGWTVFQKRLDGSVDFKKNWIQYKEGFGHLSPTGTTEFWLGNEKIHLISTQSAIPYALRVELEDWNGRTSTADYAMFKVGPEADKYRLTYAYFAGGDAGDAFDGFDFGDDPSDKFFTSHNGMQFSTWDNDNDKFEGNCAEQDGSGWWMNKCHAGHLNGVYYQGGTYSKASTPNGYDNGIIWATWKTRWYSMKKTTMKIIPFNRLTIGEGQQHHLGGAKQVRPEHPAETEYDSLYPEDDL
As for B1, in the experiment with M1 protein, the “monocyte activation: fold increase of CD11b median fluorescence intensity above background, flow cytometry of whole blood, 10 donors” value worked out at 7 fold and the “neutrophil activation: fold increase of CD11b median fluorescence intensity above background, flow cytometry of whole blood, 10 donors” value amounted to 14 fold. Further, in the experiment with M5 protein, the “monocyte activation: fold increase of CD11b median fluorescence intensity above background, flow cytometry of whole blood, 10 donors” value was 4 fold and the “neutrophil activation: fold increase of CD11b median fluorescence intensity above background, flow cytometry of whole blood, 10 donors” value amounted to 9 fold.
